Assay results as given in article doi:10.1101/459156.

Target: Hexahistidine-tagged ALIX protein (UniProt Q8WUM4)
Experiment: MST

Sequence of UniProt Q8WUM4 (Q8WUM4 whole entry): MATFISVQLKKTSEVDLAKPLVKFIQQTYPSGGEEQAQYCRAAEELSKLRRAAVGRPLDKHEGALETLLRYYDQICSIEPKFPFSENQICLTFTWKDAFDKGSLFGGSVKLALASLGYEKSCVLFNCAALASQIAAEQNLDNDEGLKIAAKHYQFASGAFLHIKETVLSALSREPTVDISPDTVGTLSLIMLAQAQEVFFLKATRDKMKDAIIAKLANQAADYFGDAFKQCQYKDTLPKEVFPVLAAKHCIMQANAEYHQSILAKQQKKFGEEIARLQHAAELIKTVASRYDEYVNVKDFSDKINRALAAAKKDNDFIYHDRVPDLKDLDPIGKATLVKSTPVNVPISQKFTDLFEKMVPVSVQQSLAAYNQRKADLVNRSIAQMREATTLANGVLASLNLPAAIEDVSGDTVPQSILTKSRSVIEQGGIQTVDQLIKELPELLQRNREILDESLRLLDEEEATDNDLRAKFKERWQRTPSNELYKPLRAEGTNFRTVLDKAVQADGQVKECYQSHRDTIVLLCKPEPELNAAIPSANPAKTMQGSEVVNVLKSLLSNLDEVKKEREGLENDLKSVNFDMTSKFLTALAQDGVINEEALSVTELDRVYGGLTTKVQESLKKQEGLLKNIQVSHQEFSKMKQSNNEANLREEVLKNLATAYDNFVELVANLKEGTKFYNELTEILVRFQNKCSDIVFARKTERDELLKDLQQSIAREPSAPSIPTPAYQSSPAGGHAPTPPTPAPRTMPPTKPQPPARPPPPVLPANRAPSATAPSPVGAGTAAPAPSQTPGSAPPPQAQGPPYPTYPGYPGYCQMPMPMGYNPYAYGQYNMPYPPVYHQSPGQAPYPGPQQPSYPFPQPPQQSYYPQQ

| Substance | Kd [µM] |
| --- | --- |
| HIV-1BWT Gag late domain motif peptide | 0.032 |
| HIV-1CWT Gag late domain motif peptide | 0.29 |
